Molecular target: T1, FLAG-IFNAR2 (human, UniProt P48551 27-515)
T1 sequence: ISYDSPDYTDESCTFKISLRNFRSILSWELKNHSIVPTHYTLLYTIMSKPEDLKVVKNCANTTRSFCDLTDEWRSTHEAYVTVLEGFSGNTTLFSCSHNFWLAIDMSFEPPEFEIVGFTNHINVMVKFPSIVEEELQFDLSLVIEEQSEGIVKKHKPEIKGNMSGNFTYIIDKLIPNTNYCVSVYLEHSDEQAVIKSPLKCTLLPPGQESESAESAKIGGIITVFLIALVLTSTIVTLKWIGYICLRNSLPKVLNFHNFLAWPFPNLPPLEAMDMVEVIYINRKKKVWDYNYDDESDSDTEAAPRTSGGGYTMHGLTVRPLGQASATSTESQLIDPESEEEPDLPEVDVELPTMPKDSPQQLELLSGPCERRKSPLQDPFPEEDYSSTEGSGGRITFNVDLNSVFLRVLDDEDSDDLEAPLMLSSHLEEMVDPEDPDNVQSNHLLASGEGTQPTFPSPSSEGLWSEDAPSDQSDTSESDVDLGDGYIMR
Test: co-IP

B1: USP18 (no tag named), expressed in U6A cells (enzyme)
chain: MSKAFGLLRQICQSILAESSQSPADLEEKKEEDSNMKREQPRERPRAWDYPHGLVGLHNIGQTCCLNSLIQVFVMNVDFTRILKRITVPRGADEQRRSVPFQMLLLLEKMQDSRQKAVRPLELAYCLQKCNVPLFVQHDAAQLYLKLWNLIKDQITDVHLVERLQALYTIRVKDSLICVDCAMESSRNSSMLTLPLSLFDVDSKPLKTLEDALHCFFQPRELSSKSKCFCENCGKKTRGKQVLKLTHLPQTLTIHLMRFSIRNSQTRKICHSLYFPQSLDFSQILPMKRESCDAEEQSGGQYELFAVIAHVGMADSGHYCVYIRNAVDGKWFCFNDSNICLVSWEDIQCTYGNPNYHWQETAYLLVYMKMEC
- fold enhancement of the co-precipitation upon expression of STAT2: ≤ 10 fold

Source: PMC5365074 (Nature structural & molecular biology, 2017)
